Target: FOXM1 (Forkhead box M1) (UniProt Q08050)
Assay: GST pull-down with purified proteins
Details: reference: GST-ZNF148 WT without ERK; sites S306

## ZNF148 (ZBP‐89) (from UniProt Q9UQR1) GST-ZNF148 WT pre-incubated with active ERK
  binding against the reference: stronger

Reference: PMC7156819
